Measured values from paper PMC10327126.

Molecular target: GST-NTF2L-F33W (human)
Assay: SPR

With “N_(1–25)-WT peptide (from UniProt P0DTC9 1-25)” the Kd was 1920 nM.
